# Experiment: yeast display, Sf9 membrane polyspecificity reagent, FACS + sequencing; frameworks hold sequencing errors
# Summary of the method: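 Polyreactivity labels are assigned by the sorting gate from which each nanobody was recovered. The gates were low and high (top ~1%), set on anti-HA fluorescence for expression and streptavidin fluorescence for reagent binding. Before sorting, galactose-induced (36–48 hours) yeast display cells were stained for 1 hour at 4 °C with 10% biotinylated, detergent-solubilized Sf9 membrane reagent.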
row,Sequence,polyreactivity (PSR sort gate)
1,QVQLVESGGGLVQAGGSLSLSCAASGFTLRFYTMGWYRQAPGKERELVADITWSGASTYYADSVKGRFTISRDNAKNTVYLQMKSLKPEDTAVYYCNAEDRYWSYSVGAPYNYWGQGTQVTVSS,low polyreactivity
2,QVQLVESGGGLVQAGGSLSLSCAASGIIFGRNALGWYRQAPGKEREMVAGITRRGARTYYADSVKGRFTISRDNAKNTVDLQMNSLKPEDTAVYYCATYSVQTDYGRGDYWGQGTQVTVSS,high polyreactivity
3,QVQLVESGGGLVQAGGSLSLSCAASGITFEWYAMGWYRQAPGKERELVAAISTSGGSTYYADSVKGRFTISRDNEKNTVYLQMNSLKPEDTEVYYCNTVSYGYSSKLYDYWGHGTQVTVSS,high polyreactivity
4,QVQLVESGGGLVQAGGSLSLSCAASGITFSGNAMGWYRQAPGKERELVAAITWRGDNTYYADSVKGRFTISRDNAKNTVYLQMNSLKPEDTAVYYCAAKSPLFGLTSYPGPDDSWGQGTQVTVSS,low polyreactivity
5,QVQLVESGGGLVQAGGSLSLSCAASGLTFSWYTMGWYRPAPGKERELVAAISWSGVSTYYADSVMGRFTISRDNAKNTVYLQMNSLKPEDTAVYYCAAAKTGRGRGTTGYGYWGQGTQVTVSS,high polyreactivity
6,QVQLVESGGGLVQAGGSLSLSCAASGNTFWGYAMGWYRQAPGKEREFVARINWSGGRTYYAESVKGRFTISRDNAKNTVYLQMNSLKPEDTAVYYCAATSLIYGYRTYDYWGQGTQVTVSS,high polyreactivity
7,QVQLVESGGGLVQAGGSLSLSCAASGRIFRRYAMGWYRPAPGKERELVASISSGGSTNYADSVKGRFTISRDNAKNTVYLQMNSLKPEDTAVYYCDADRARYYYQAYGAYGYWGQGTQVTVSS,high polyreactivity
8,QVQLVESGGGLVQAGGSLSLSCAASGRIFSWYDMGWYRQAPGKERELVAAISSGGSTKYADSVKGRFTISRDNAKNTVYLQMNCLKPEDTAVYYCAARLPRRYTREGYWGQGTQVSVSS,high polyreactivity
9,QVQLVESGGGLVQAGGSLSLSCAASGRILSLNAMGWYRQAPGKERELVAGIRKRGGSTYYADSVKGRFTISRDNAKNTVYLQMNSLKPEDTAVYYCAADGTLFSEYYWFFGYHDYWGQGTQVNVSS,high polyreactivity
10,QVQLVESGGGLVQAGGSLSLSCAASGRSWFGNAMGWYRQAPGKERELVASISTRGGSTYYADSVKGRFTISRDNAKNTVYLQMNSLKPEDTAVYYCAKRGRDRRIYGYWGQGTQVTVSS,high polyreactivity
11,QVQLVESGGGLVQAGGSLSLSCAASGRTFANYAMGWYRHAPGKETEFVAVITYSGGNTYYADSVKGRFTISRDNAKNTVYLQMNSLKPEDTAVYYCAKGRPYRNGLYYYWGQGTQVTVSS,high polyreactivity
12,QVQLVESGGGLVQAGGSLSLSCAASGRTFGYNAKGWYRQAPGKERELVASISYRGGSTYYADSVKGRFTISRDNAKNSVYLQMNSLKPEDTAVYYCNKYYVLREYYWGQGTQVTVSS,high polyreactivity
13,QVQLVESGGGLVQAGGSLSLSCAASGRTFKYYAMGWYRQAPGKERELVATITWSGTSTNYADSVKGRFTISRDNEKHTVYLQMNSLKPEDTAVYYCAARSKRRNYDYWGQGTQVTVSS,high polyreactivity
14,QVQLVESGGGLVQAGGSLSLSCAASGRTFLIYAMGWYRQAPGKERELVAAITSGDNTYYADSVKGRFTISRDNAKNTVYLQMNSLKPEDTAVYYCAAGGYVRNYYTYEHWGQGTQVTVSS,low polyreactivity
15,QVQLVESGGGLVQAGGSLSLSCAASGRTFNSNAMGWYRQAPGKERELVAAISNRGTRTYYADSVKGRFTISRDNAKNTVYLQMNSLKPEDTAVYYCAASERDQRFKHYYWGQGTQVTVSS,high polyreactivity
16,QVQLVESGGGLVQAGGSLSLSCAASGRTFSQYAMGWYRPAPGTERELVAAIDRTGDSTYYADSVKGRFTISRDNAKNTVYLQMNSLKPEDTAVYYCNRRYTRVRSRKGYDYWGQGTQVTVSS,high polyreactivity
17,QVQLVESGGGLVQAGGSLSLSCAASGRTFVKNTMGWYRQAPGKERELVAAISSSGGSTYYADSVKGRFTISRDNAKNTVYLQMNSLKPEDTAVYYCAVSYPYKHAGGWYAYNYWGQGTLVTVSS,high polyreactivity
18,QVQLVESGGGLVQAGGSLSLSCAASGRTFYAYAMGWYRQAPGTERELVACIDKSGGSPYYADSVKGRFTISRTMRRYRLFTDEQPETGRYRGLLLRCWCVVLSDIQFWGEFDYDYWGQGTQVTVSS,low polyreactivity
19,QVQLVESGGGLVQAGGSLSLSCAASGSIFAQYAMGWYRQAPGKERELVATISSVGSTNYADSVKGRFTISRANAKNTVYLQMNSLKPEDTAVYYCAADYRHDTFSNEYDYWGQGTQVTVSS,low polyreactivity
20,QVQLVESGGGLVQAGGSLSLSCAASGSIFASYVMGWYRPAPGKEREMVAGIDTSGGSTFYADSVKGRFTISRDNAKNTVYLQMNSLKPEDTAVYYCAADTWYRGRWEFDYWGQGTQVTVSS,low polyreactivity
21,QVQLVESGGGLVQAGGSLSLSCAASGSIFGTNAMGWYRQAPGKERELVAAISSSGASTYYADSVKGRFTISRDNAKNSVYLQMNSLKPEDTAVYYCARGYTYQSSSFYYWGQGTQVTVSS,low polyreactivity
22,QVQLVESGGGLVQAGGSLSLSCAASGSIFYNYAMGWYRQAPGKEREFVAAISWSGDTTYYADSVKGRFTISRDNAKNTVYLQMNSLKPEDTAVYYCNADIYASEYYYWGQGTQVTVSS,low polyreactivity

row,Sequence,polyreactivity (PSR sort gate)
1,QVQLVESGGGLVQAGGSLSLSCAASGSILVPYTMGWYRQAPGKERELVASISYSGGSTYADSVKGRFTISRDNAKNTVYLQMNSLKPEDTAVYYCAASLPPWYPGDDFYYWGQGTQVTVSS,low polyreactivity
2,QVQLVESGGGLVQAGGSLSLSCAASGSIVAYNAMGWYRQAPGKERELVAAITDSGGSTFYADSVKGRFTISRDNAKNTVYLQMNSLKPEDTAVYYCATSGDRLVWGQGTQVTVSS,low polyreactivity
3,QVQLVESGGGLVQAGGSLSLSCAASGSTFGLNASGWYRQAPGKEREFVAAITSGGTYYADSVKGRFTISRDNAKYTVYLHMYSLKPEDTSVYYCAADGTWSIYGGMYYWGQGTQVTVSS,low polyreactivity
4,QVQLVESGGGLVQAGGSLSLSCAASGSTFKHYAMGWYRKAPGKERELVAAISSRGGSTHYADSVKGRFTISRDNAKNTVYLQMNSLKPEDTAVYYCARDTDPQSSRSSDYDYWGQGTQVTVSS,low polyreactivity
5,QVQLVESGGGLVQAGGSLSLSCAASGSTFKRYAMGWYRQAPGKERDLVASISSGGSTNYADSVKGRFTISRDNAKNTVNLQMNSLKPEETAVYYCAVSYRSFRYYWERYYSWGQGTQVTVSS,high polyreactivity
6,QVQLVESGGGLVQAGGSLSLSCAASGSTFWYYAMGLYRQAPGKERELVAAITRGGNTYYADSVKGRFTISRDNAKNTVYLQMNSLKPEDTAVYYCAAGFYLLGKYDYWGQGTQVTVSS,high polyreactivity
7,QVQLVESGGGLVQAGGSLSLSCAASGSTFYPYAMGWYRQAPGTERELVAAISSGGSTSYADSVKGRFTISRDNAKNTVYLQMNSLKPEDTAVYYCAAEGPEIKYYYWGQGTQVTVSL,low polyreactivity
8,QVQLVESGGGLVQAGGSLSLSCAASGSTIVYYAMGWYRPAPRKERELVAAINYSSGSTYYADSVKGRFTISRDNSKKTVYLQMNSLKPEDRAVYYCATDLLYYQYYSEYDYWGQGTQVTVSS,high polyreactivity
9,QVQLVESGGGLVQAGGSLSLSCAATGRTFYHYVMGWYRQAPGKERELVAAISVSGGRTYYADSVKGRFTISRDNAKNTVYLQMNSLKPEDTAVYYCNARYGHRVRKEAGLSYYWGQGTQVTVSS,high polyreactivity
10,QVQLVESGGGLVQAGGSLSLSCAATGSTLKFNAMGWYRQAPGKERELVAAINFSGGSTYYADSVKGRFTISRDNAKNTVYLQMNSLKPEDTAVYYCAAEASYYSRSVRWRYDYYYWGQGTQVTVSS,high polyreactivity
11,QVQLVESGGGLVQAGGSLSLSCDASGSTFYTYAMGWSRQEPGKERELVAAITSSGGSTYYADSVKGRFTISRDNAKNTVYLLMNSLKPEDTAVYYCAARVLGGFGFWGQGTQVTVSS,high polyreactivity
12,QVQLVESGGGLVQAGGSLSLSWAASGFIFRLYAMGWYRQAPGKERELVSGITQRGGRTYYADSLKGRFTISRDNANNTVYLQMNSLKPEDTAVYYCAADRCEYVYWGQGTQVTVSS,high polyreactivity
13,QVQLVESGGGLVQAGGSLSLTCAAYGRTITRYVMGWYRQAPGKERELVAYISRGGSTNYADSVKGRFTISRDNAKNTVYLQMNSLKPEDSAVYYCAARFSWGGYYSTTYPLTHDYWGQGTQVNVSS,high polyreactivity
14,QVQLVESGGGLVQAGGSLSLTCDASGFILYYYAMGRYRQAPGKERELVAAIDWDGDRTYYADSVKGRFTISRDIAKNTVYLQMNSLKPEDTAVYYCAAEWPVNFDYWGQGTQVTVSS,low polyreactivity
15,QVQLVESGGGLVQAGGSPLLSCAASGSIFPSYDMGWYRQAPGKERELVAPLSWSGSTTYSADSVKGRFTISRDNAKNTVSLQMNSLKPEDTAVYYCAVDSNPPDWWAVIYGYWGQGTQVTVSS,low polyreactivity
16,QVQLVESGGGLVQAGGSPRLSCAASGFTFYLYAMGWYRQAPGKERELVAAITRVGSTYYADSVKGRFTISRDNAKNTVYLQMNSLKPEDSAVYYCATDLSQVGFDYWGQGTQVSVSS,high polyreactivity
17,QVQLVESGGGLVQAGGSPRLSCAASGSIFSRNTMGWYRQAPGKERELVATITSGSNTNYADSVKGRFTISRDNAKNTVYLQMNSLKPEDTAVYYWGQGTQVTVSS,low polyreactivity
18,QVQLVESGGGLVQAGGSPRLSCAASGSTFVPYDMGWYRQAPAKERELVAAISRGGSTYYADSVKGRFTISRDNAKNTFYLQMNSLKPEDTAVYYCDARARICTVDYWVQGTQVTVSS,high polyreactivity
19,QVQLVESGGGLVQAGGSQRLSCDSSGSTFRYYAMGWYRPAPGKQRELVAVITWNGGGTYYADSMKGRFTISRDNAKNNVYLHMNSLKPVDTAVYYCAADASLYTDEYDNWGLGTQVTVSS,low polyreactivity
20,QVQLVESGGGLVQAGGSRLSCAASGRIFPVYAMGWYIQAPGKERELVAGINSSGDNTYYADSVKGRFTISRDNAKNTVYLQMNSLKPEDTAVYYCAAYYPYYVPYGFDYCGQGTQVTVSS,low polyreactivity
21,QVQLVESGGGLVQAGGSRPLSCAASGFIFDSNAMGWYRQAPGKGTDLVAAISWSGTSTFYADSVKGRFTISRDNAKNTVYLQMNSLNPEDTAVYYCAAKYGRRGFNRYGYWGQGTQVTVSS,high polyreactivity

# From the nanobody polyreactivity screen of Harvey et al. (2022)
